# Test system: CD8+ T cells
# Assay: In vitro immunogenicity: T-cell priming with aAPCs loaded with peptide/MHC complexes and anti-CD28, pMHC multimer readout
# Assay type: cell-based, human
# Settings: in vitro immunogenicity, HLA-A*02 restricted peptides; percentage of positive wells and donors (among evaluable)
# Description: In order to obtain information regarding the immunogenicity of the TUMAPs of the present invention, the inventors performed investigations using an in vitro T-cell priming assay based on repeated stimulations of CD8+ T cells with artificial antigen presenting cells (aAPCs) loaded with peptide/MHC complexes and anti-CD28 antibody.
# In order to perform in vitro stimulations by artificial antigen presenting cells loaded with peptide-MHC complex (pMHC) and anti-CD28 antibody, the inventors first isolated CD8+ T cells from fresh HLA-A*02 leukapheresis products via positive selection using CD8 microbeads (Miltenyi Biotec, Bergisch-Gladbach, Germany) of healthy donors obtained from the University clinics Mannheim, Germany, after informed consent. PBMCs and isolated CD8+ lymphocytes were incubated in T-cell medium (TCM) until use consisting of RPMI-Glutamax (Invitrogen, Karlsruhe, Germany) supplemented with 10% heat inactivated human AB serum (PAN-Biotech, Aidenbach, Germany), 100 U/ml Penicillin/100 μg/ml Streptomycin (Cambrex, Cologne, Germany), 1 mM sodium pyruvate (CC Pro, Oberdorla, Germany), 20 μg/ml Gentamycin (Cambrex). 2.5 ng/ml IL-7 (PromoCell, Heidelberg, Germany) and 10 U/ml IL-2 (Novartis Pharma, Nürnberg, Germany) were also added to the TCM at this step. Generation of pMHC/anti-CD28 coated beads, T-cell stimulations and readout was performed in a highly defined in vitro system using four different pMHC molecules per stimulation condition and 8 different pMHC molecules per readout condition.
# The purified co-stimulatory mouse IgG2a anti human CD28 Ab 9.3 (Jung et al., 1987) was chemically biotinylated using Sulfo-N-hydroxysuccinimidobiotin as recommended by the manufacturer (Perbio, Bonn, Germany). Beads used were 5.6 μm diameter streptavidin coated polystyrene particles (Bangs Laboratories, Illinois, USA).
# pMHC used for positive and negative control stimulations were A*0201/MLA-001 (peptide […] (SEQ ID NO. 289) from modified Melan-A/MART-1) and A*0201/DDX5-001 ([…] from DDX5, SEQ ID NO. 290), respectively.
# 800,000 beads/200 μl were coated in 96-well plates in the presence of 4×12.5 ng different biotin-pMHC, washed and 600 ng biotin anti-CD28 were added subsequently in a volume of 200 μl. Stimulations were initiated in 96-well plates by co-incubating 1×10^6 CD8+ T cells with 2×10^5 washed coated beads in 200 μl TCM supplemented with 5 ng/ml IL-12 (PromoCell) for 3 days at 37° C. Half of the medium was then exchanged by fresh TCM supplemented with 80 U/ml IL-2 and incubating was continued for 4 days at 37° C. This stimulation cycle was performed for a total of three times. For the pMHC multimer readout using 8 different pMHC molecules per condition, a two-dimensional combinatorial coding approach was used as previously described (Andersen et al., 2012) with minor modifications encompassing coupling to 5 different fluorochromes. Finally, multimeric analyses were performed by staining the cells with Live/dead near IR dye (Invitrogen, Karlsruhe, Germany), CD8-FITC antibody clone SK1 (BD, Heidelberg, Germany) and fluorescent pMHC multimers. For analysis, a BD LSRII SORP cytometer equipped with appropriate lasers and filters was used. Peptide specific cells were calculated as percentage of total CD8+ cells. Evaluation of multimeric analysis was done using the FlowJo software (Tree Star, Oreg., USA). In vitro priming of specific multimer+CD8+ lymphocytes was detected by comparing to negative control stimulations.
row,Substance,Wells positive [%]
1,102 (GLYPVTLVGV; listed as Homo sapiens) [compound 102],+ (<20% = +)

# Same assay, conditions: positive donors; CD8+ T cells of healthy HLA-A*02 donors, three stimulation cycles, multimer staining
row,Substance,in vitro immunogenicity: donors
1,288 (SLYKGLLSV; listed as Homo sapiens) [compound 288],++++ (>= 70% = ++++)
2,287 (KIQEILTQV; listed as Homo sapiens) [compound 287],+++ (50%-69% =+++)

# Same assay, conditions: positive wells; CD8+ T cells of healthy HLA-A*02 donors, three stimulation cycles, multimer staining
row,Substance,in vitro immunogenicity: wells
1,288 (SLYKGLLSV; listed as Homo sapiens) [compound 288],++ (21%-49% = ++)
2,287 (KIQEILTQV; listed as Homo sapiens) [compound 287],+ (<20% = +)

# Molecular target: HLA-A*02:01 (Homo sapiens, UniProt P04439, D140Y/D185E/D98H/E176V/E277Q/G131W/G231S/I119V/I121R/I166T/I218V/L300P/L318F/N151K/N90K/P208A/P217A/Q86G/Q94H/R138H/R169H/T345S)
# Assay: MHC binding assay (UV-ligand exchange, beta2m ELISA)
# Settings: binding to HLA-A*02:01, β2m ELISA
# In short: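 Peptide-MHC complexes made by UV-ligand exchange of a UV-cleavable peptide for test peptide; exchange yield measured by β2m ELISA on streptavidin-coated plates with samples diluted 100-fold, HRP anti-β2m and TMB read at 450 nm. Refolded HLA-A*02:01/MLA-001 monomers (15-500 ng/ml) served as standards.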
row,Substance,"Peptide exchange (MHC class I binding score, peptide exchange yield)"
1,102 (GLYPVTLVGV; listed as Homo sapiens) [compound 102],+++ (≥50 = +++)
2,167 (LVVDEGSLVSV; listed as Homo sapiens) [compound 167],+++ (≥50 = +++)
3,99 (TLFGIQLTEA; listed as Homo sapiens) [compound 99],+++ (≥50 = +++)
4,207 (KLFETVEEL; listed as Homo sapiens) [compound 207],+++ (≥50 = +++)
5,25 (LLWGHPRVALA; listed as Homo sapiens) [compound 25],+++ (≥50 = +++)
6,139 (IILENIQSL; listed as Homo sapiens) [compound 139],+++ (≥50 = +++)
7,12 (RLLDPKTIFL; listed as Homo sapiens) [compound 12],+++ (≥50 = +++)
8,53 (AQHLSTLLL; listed as Homo sapiens) [compound 53],+ (≥10% = +)
9,58 (HLLGEGAFAQV; listed as Homo sapiens) [compound 58],+++ (≥50 = +++)
10,163 (GLEERLYTA; listed as Homo sapiens) [compound 163],++ (≥20% = ++)
11,275 (AVPPPPSSV; listed as Homo sapiens) [compound 275],++ (≥20% = ++)
12,33 (TLDRNSLYV; listed as Homo sapiens) [compound 33],++ (≥20% = ++)
13,130 (QLYGSAITL; listed as Homo sapiens) [compound 130],+++ (≥50 = +++)
14,63 (KLLPMVIQL; listed as Homo sapiens) [compound 63],+++ (≥50 = +++)
15,190 (SLSTELFKV; listed as Homo sapiens) [compound 190],+++ (≥50 = +++)
16,20 (ALVEKGEFAL; listed as Homo sapiens) [compound 20],++ (≥20% = ++)
17,112 (ILAQDVAQL; listed as Homo sapiens) [compound 112],+++ (≥50 = +++)
18,206 (GLDAFRIFL; listed as Homo sapiens) [compound 206],++++ (≥75% = ++++)
19,47 (GLNGFNVLL; listed as Homo sapiens) [compound 47],+++ (≥50 = +++)
20,284 (KLMDPGSLPPL; listed as Homo sapiens) [compound 284],++ (≥20% = ++)
21,83 (GLLENSPHL; listed as Homo sapiens) [compound 83],++ (≥20% = ++)
22,272 (FVMEGEPPKL; listed as Homo sapiens) [compound 272],++ (≥20% = ++)
23,74 (GLAFLPASV; listed as Homo sapiens) [compound 74],++ (≥20% = ++)
24,106 (VLLGSVVIFA; listed as Homo sapiens) [compound 106],++ (≥20% = ++)

row,Substance,"Peptide exchange (MHC class I binding score, peptide exchange yield)"
1,124 (ALLLRLFTI; listed as Homo sapiens) [compound 124],++ (≥20% = ++)
2,224 (LLFDWSGTGRADA; listed as Homo sapiens) [compound 224],+++ (≥50 = +++)
3,1 (KLQEKIQEL; listed as Homo sapiens) [compound 1],++++ (≥75% = ++++)
4,87 (KLLSLLEEA; listed as Homo sapiens) [compound 87],+++ (≥50 = +++)
5,204 (SEWGSPHAAVP; listed as Homo sapiens) [compound 204],+++ (≥50 = +++)
6,70 (GLTEKTVLV; listed as Homo sapiens) [compound 70],++ (≥20% = ++)
7,119 (SLIEESEEL; listed as Homo sapiens) [compound 119],++ (≥20% = ++)
8,177 (ALINVLNAL; listed as Homo sapiens) [compound 177],+++ (≥50 = +++)
9,59 (ALADGIKSFLL; listed as Homo sapiens) [compound 59],+++ (≥50 = +++)
10,210 (GLAGDNIYL; listed as Homo sapiens) [compound 210],+++ (≥50 = +++)
11,153 (KLVELEHTL; listed as Homo sapiens) [compound 153],+++ (≥50 = +++)
12,277 (KLQEELNKV; listed as Homo sapiens) [compound 277],+++ (≥50 = +++)
13,154 (AIIKEIQTV; listed as Homo sapiens) [compound 154],++ (≥20% = ++)
14,193 (ALFHMNILL; listed as Homo sapiens) [compound 193],+++ (≥50 = +++)
15,252 (SLMEKNQSL; listed as Homo sapiens) [compound 252],++ (≥20% = ++)
16,243 (GLAEFQENV; listed as Homo sapiens) [compound 243],++ (≥20% = ++)
17,54 (YLVPGLVAA; listed as Homo sapiens) [compound 54],+++ (≥50 = +++)
18,149 (NMADGQLHQV; listed as Homo sapiens) [compound 149],++ (≥20% = ++)
19,90 (AILNVDEKNQV; listed as Homo sapiens) [compound 90],++ (≥20% = ++)
20,40 (KIWEELSVLEV; listed as Homo sapiens) [compound 40],+++ (≥50 = +++)
21,195 (VIIQNLPAL; listed as Homo sapiens) [compound 195],+++ (≥50 = +++)
22,282 (SLYALHVKA; listed as Homo sapiens) [compound 282],++ (≥20% = ++)
23,145 (ALEEKLENV; listed as Homo sapiens) [compound 145],+++ (≥50 = +++)

# Source: patent US10081665B2, “Peptides and combination of peptides for use in immunotherapy against various tumors” (immatics biotechnologies GmbH, priority 2015, dated 2018)
